The values below come from PMC11166264 (Cell reports, 2021).

Experiment [1] deals with T1, HA-dmRanGAP (Drosophila melanogaster, UniProt Q9VIW3 1-596).
T1 sequence (looked up): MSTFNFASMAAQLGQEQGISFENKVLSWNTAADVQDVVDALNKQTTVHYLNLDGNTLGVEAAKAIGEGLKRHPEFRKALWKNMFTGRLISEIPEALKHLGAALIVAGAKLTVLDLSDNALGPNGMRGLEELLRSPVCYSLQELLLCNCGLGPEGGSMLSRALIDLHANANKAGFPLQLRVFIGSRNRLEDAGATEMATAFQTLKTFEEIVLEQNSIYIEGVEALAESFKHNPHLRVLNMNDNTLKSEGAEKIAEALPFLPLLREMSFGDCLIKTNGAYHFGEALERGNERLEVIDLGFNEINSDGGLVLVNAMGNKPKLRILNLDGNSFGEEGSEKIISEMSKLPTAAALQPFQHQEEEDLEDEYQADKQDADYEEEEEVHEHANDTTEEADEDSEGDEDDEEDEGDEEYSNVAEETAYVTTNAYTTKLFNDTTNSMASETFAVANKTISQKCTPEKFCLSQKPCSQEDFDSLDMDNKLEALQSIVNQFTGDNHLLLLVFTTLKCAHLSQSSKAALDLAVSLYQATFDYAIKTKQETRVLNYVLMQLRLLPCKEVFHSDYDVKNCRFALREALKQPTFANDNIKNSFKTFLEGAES
The experiment can be described thus: pull-down.

For experiment [2], the target named is T1, HA-dmRanGAP. The experiment can be described thus: pull-down. The source holds these as a separate data set.

Read-outs that look alike come from different tables or passages of the source. No end group written: not given here. *: point of attachment. Biotin = O=C1N[C@H]2[C@H](CS[C@H]2CCCCC(=O)*)N1

B1: dmRanBP2B-Frag (aa 2151-2250 of dmRanBP2B isoform) (domain or fragment, Drosophila melanogaster, UniProt A0A0B4K7J2 2151-2250, looked up)
chain: KPIEDSPVVGSVSQSTEANKPSQKNDGAAKSRGGESEVLDVGKTSSVRPTTHEVIPPLPMTLPLLTLPQPLAKPNDYQTPATILFKGSSLSRNNSSASEA
As for B1, the binding result with HA-dmRanGAP [1] was “binds”.

In the case of Biotin-VRPTTHEVIPPLPMTLPLLTLPQ [Biotinylated BP2 peptide (aa 2197-2219 of dmRanBP2)], the binding result with HA-dmRanGAP [2] is recorded as “binds”.
